{"source": "paper PMC11256085", "target": "EnfB, ThiF-like adenylyltransferase (TLAT) (Enterococcus faecium strain FDAARGOS_397 (methods); E. faecalis FDAARGOS_397 (results))", "data": [{"substance": "EnfA with Trp18 substituted by Ala (peptide)", "values": [{"measurement": "conversion of the EnfA variant by EnfB (in vitro enzyme assay, LC-MS)", "value": 2.1, "unit": "%"}]}]}
